In test [1] the target is CEP-BSA (21:1 molar ratio) (bovine (from the name BSA)) (UniProt P02769). As to the kind of experiment: BLI; Octet K2; CEP-BSA or fibrinogen amine-coupled to AR2G biosensor; active αD I-domain 50-1000 nM in the mobile phase; 20 mM HEPES, 150 mM NaCl, 1 mM CaCl2, 1 mM MgCl2, 0.02% Tween-20, 0.02% BSA, pH 7.5; KD from a plot of response at equilibrium against concentration. In general terms: Biolayer interferometry detects binding as a change in optical thickness at a sensor tip.

For the next test, the target named is Human fibrinogen (human) (UniProt P02671). The description is as above.
UniProt P02671, sequence (P02671 36-866, chain 1 of 3): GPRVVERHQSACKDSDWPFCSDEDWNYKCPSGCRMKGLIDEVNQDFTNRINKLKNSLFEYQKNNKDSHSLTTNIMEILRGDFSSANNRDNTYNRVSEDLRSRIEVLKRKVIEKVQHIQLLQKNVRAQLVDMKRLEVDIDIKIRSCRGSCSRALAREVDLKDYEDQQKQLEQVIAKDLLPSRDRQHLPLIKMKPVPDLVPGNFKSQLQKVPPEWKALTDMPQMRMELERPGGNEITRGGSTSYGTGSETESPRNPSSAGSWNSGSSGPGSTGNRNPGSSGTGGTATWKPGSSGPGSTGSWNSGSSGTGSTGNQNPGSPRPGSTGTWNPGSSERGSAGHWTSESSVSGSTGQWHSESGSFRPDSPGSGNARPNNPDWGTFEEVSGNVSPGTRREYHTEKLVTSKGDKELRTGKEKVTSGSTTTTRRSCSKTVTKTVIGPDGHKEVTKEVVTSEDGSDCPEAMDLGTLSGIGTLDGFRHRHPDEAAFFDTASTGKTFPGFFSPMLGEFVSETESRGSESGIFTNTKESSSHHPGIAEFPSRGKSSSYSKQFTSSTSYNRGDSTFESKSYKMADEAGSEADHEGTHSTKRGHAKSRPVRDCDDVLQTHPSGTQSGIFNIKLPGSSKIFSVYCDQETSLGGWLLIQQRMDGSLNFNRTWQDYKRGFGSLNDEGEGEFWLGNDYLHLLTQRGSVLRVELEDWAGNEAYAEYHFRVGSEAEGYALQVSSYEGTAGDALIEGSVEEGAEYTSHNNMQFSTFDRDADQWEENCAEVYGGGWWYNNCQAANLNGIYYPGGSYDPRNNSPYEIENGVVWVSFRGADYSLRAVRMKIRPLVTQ
UniProt P02671, sequence (P02675 45-491, chain 2 of 3, further chain): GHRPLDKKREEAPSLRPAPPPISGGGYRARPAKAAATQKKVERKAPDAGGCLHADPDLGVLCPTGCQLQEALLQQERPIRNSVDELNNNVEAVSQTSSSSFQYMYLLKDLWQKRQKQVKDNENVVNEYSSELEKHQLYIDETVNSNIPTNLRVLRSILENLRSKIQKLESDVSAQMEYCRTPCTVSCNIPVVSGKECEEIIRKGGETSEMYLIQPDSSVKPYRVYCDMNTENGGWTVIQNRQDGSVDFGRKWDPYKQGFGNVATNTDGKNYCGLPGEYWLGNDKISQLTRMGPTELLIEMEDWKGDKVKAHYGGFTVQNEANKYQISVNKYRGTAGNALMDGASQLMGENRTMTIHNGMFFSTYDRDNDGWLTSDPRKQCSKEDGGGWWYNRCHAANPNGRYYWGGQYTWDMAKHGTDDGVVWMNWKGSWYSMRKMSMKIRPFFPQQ
UniProt P02671, sequence (P02679 27-453, chain 3 of 3, further chain): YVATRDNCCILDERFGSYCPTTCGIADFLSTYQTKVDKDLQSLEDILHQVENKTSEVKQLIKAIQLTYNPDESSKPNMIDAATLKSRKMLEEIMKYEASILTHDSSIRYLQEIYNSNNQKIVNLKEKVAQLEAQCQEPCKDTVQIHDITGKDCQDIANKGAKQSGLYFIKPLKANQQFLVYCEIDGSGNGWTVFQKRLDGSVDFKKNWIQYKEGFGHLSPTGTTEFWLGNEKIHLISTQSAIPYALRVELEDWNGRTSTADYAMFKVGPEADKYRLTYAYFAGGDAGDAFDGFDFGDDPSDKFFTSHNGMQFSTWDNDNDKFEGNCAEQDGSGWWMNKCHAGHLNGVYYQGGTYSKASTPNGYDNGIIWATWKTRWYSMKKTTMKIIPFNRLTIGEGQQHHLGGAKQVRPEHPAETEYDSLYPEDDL

Broadly, the Kd is the free concentration of one partner at which half of the binding sites on the other are occupied at equilibrium, for simple one-to-one binding.

“recombinant αD I-domain in an active conformation (domain or fragment)”: the Kd is 0.1 µM in test [1] and 0.22 µM with Human fibrinogen (human).

These data come from publication PMC9204313.
